Experimental data published in patent US5972608.

Legend:
[1] = tested on: SWI/SNF complex (Saccharomyces cerevisiae); test: cleavage_in_vitro; settings: kcat of nucleosome remodeling, SalI-coupled; 1 mM ATP, 125 mM NaCl, 2.5 mM MgCl2; no stimulation without ATP or with ATPgS
[2] = tested on: SalI restriction endonuclease; test: cleavage_in_vitro; settings: 125 mM NaCl

Substance	activity [1] [min⁻¹]	activity ([2]; second slow phase, nucleosomal DNA, Kconf 3.2e-3, 2.5 mM MgCl2) [U^-1 min^-1]	activity ([2]; naked DNA, 2.5 mM MgCl2, 37 C, +/-0.03e-4) [U^-1 min^-1]
11-mer 5S SalI nucleosome array (pCL7c template with histone octamers)	0.22	9.19e-07	–
11-mer 5S SalI array template (pCL7c)	–	–	0.000286
